Experimental data published in patent US20260263645A1 (published 2026).

Molecular target: TGFβ1 (UniProt P01137 279-390)
Experiment: radioligand plate binding; 89Zr-labeled

Chain of TGFβ1 (P01137 279-390): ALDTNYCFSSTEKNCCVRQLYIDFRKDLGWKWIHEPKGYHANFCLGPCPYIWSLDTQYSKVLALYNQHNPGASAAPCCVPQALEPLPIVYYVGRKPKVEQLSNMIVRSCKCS

B1: Fresolimumab (antibody, V domains shown)
VH: QVQLVQSGAEVKKPGSSVKVSCKASGYTFSSNVISWVRQAPGQGLEWMGGVIPIVDIANYAQRFKGRVTITADESTSTTYMELSSLRSEDTAVYYCASTLGLVLDAMDYWGQGTLVTVSS
VL: ETVLTQSPGTLSLSPGERATLSCRASQSLGSSYLAWYQQKPGQAPRLLIYGASSRAPGIPDRFSGSGSGTDFTLTISRLEPEDFAVYYCQQYADSPITFGQGTRLEIKR
  Kd: 66 nM
